Settings: Mus musculus, pH 7.5, Thermal, Potassium phosphate 50 mM, KCl 50 mM, reversible: yes, structure 1MBG

Chain of Transcriptional activator Myb V103L, P06876 (P06876 whole entry V103L): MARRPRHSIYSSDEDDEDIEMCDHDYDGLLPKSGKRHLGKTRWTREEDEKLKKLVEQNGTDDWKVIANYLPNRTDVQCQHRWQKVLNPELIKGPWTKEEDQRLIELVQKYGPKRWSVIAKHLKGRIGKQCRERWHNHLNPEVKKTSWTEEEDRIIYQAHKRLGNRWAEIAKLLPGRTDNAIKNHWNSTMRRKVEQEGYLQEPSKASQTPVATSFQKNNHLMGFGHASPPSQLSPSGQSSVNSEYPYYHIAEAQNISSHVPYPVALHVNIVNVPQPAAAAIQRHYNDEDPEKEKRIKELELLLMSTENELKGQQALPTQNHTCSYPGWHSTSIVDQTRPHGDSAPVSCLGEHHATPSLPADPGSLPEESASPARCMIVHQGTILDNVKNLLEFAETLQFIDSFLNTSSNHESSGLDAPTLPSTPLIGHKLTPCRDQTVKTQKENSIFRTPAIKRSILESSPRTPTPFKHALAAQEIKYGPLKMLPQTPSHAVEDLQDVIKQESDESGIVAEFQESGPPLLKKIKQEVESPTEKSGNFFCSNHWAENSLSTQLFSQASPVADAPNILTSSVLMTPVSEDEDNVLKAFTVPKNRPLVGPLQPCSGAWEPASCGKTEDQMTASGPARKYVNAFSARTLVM
Chain of Transcriptional activator Myb V103I, P06876 (P06876 whole entry V103I): as the sequence (P06876 whole entry V103L) above, with L103I counted along it
Chain of Transcriptional activator Myb V103A, P06876 (P06876 whole entry V103A): as the sequence (P06876 whole entry V103L) above, with L103A counted along it

Row | Substance | Tm (CD) | change of melting temperature, mutant - wild type (higher = more stable) (CD) | Tm (DSC) | unfolding enthalpy (calorimetric) (DSC)
1 | Transcriptional activator Myb V103I, P06876 | 46.6 °C | 7 °C | 47.5 °C | 32.1 kcal/mol
2 | Transcriptional activator Myb V103A, P06876 | 2.8 °C | -36.8 °C |  | 
3 | Transcriptional activator Myb V103L, P06876 | 62 °C | 22.4 °C | 62 °C | 41.8 kcal/mol

Source: FireProtDB (doi:10.1006/jmbi.1999.3099)
